From patent US20170247441A1 (Hoffmann-La Roche, published 2017)
Numbering of substitutions follows the chain as printed. Numbers in names are those of the source.

T1: human ANG2-RBD-Fc-region fusion (human, UniProt O15123 275-496, limits assumed)
T1 construct: not shown: Fc-region
T1 sequence: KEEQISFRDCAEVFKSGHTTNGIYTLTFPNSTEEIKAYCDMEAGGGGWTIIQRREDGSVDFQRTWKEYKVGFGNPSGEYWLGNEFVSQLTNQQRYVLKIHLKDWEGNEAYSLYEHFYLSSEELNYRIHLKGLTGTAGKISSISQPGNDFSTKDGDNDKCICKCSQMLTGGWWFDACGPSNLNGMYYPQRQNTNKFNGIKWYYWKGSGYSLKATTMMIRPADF

T2: ANG2 (R&D Systems, Cat#623-CF) (human, UniProt O15123 19-496)
T2 sequence: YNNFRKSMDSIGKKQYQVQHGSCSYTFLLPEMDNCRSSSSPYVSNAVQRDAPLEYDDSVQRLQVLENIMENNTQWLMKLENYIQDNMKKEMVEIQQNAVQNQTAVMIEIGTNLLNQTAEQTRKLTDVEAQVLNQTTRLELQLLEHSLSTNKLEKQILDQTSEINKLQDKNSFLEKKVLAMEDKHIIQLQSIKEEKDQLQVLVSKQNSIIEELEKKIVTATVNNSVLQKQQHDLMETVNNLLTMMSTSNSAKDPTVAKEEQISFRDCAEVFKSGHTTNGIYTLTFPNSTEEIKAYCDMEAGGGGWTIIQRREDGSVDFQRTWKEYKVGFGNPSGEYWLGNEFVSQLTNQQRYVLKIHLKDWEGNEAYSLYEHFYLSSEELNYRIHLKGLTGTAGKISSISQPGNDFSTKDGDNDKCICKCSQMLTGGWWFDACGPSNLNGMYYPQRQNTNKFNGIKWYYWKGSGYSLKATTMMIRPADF

B1: XAng2-0041 (Fab)
heavy: not shown
light: SYVLTQPPSVSVAPGQTARITCGGNNIGSKSVHWYQQKPGQAPVLVVYDDSDRPSGIPERFSGSNSGNTATLTISRVEAGDEADYYCQVWDSSSDHWVFGGGTKLTVLSSASTKGPSVFPLAPSSKSTSGGTAALGCLVKDYFPEPVTVSWNSGALTSGVHTFPAVLQSSGLYSLSSVVTVPSSSLGTQTYICNVNHKPSNTKVDKKVEPKSC
notes: CrossFab CL-CH1, valency 1; differences VH: S100dP, G100jA, T28N, T30A; VL: wt
B2: XAng2-0090 (Fab)
heavy: not shown
light: B1 light with D50T
notes: CrossFab CL-CH1, valency 1; differences VH: S100dP, G100jA, T28N, T30A; VL: D50T
B3: XAng2-0075 (Fab)
heavy: not shown
light: B1 light with D50T
notes: CrossFab CL-CH1, valency 1; differences VH: S100dP, G100jA, T28N, T30A, D100bS; VL: D50T
B4: XAng2-0099 (antibody)
heavy: not shown
light: B1 light
notes: CrossMab CL-CH1, valency for ANG2 2; differences VH: S100dP, G100jA, T28N, T30A; VL: wt
B5: XAng2-0101 (antibody)
heavy: not shown
light: B1 light with D50T
notes: CrossMab CL-CH1, valency for ANG2 2; differences VH: S100dP, G100jA, T28N, T30A, D100bE; VL: D50T
B6: XAng2-0100 (antibody)
heavy: not shown
light: B1 light with D50T
notes: CrossMab CL-CH1, valency for ANG2 2; differences VH: S100dP, G100jA, T28N, T30A; VL: D50T

These binders were tested against T1, human ANG2-RBD-Fc-region fusion (assay: SPR, human ANG2-RBD-Fc captured, 1:1 model).

Binder | koff | kon | t1/2
B1 | 0.00317 s⁻¹ | 3.85e+06 M⁻¹ s⁻¹ | 3.65 min
B2 | 0.00253 s⁻¹ | 2.16e+06 M⁻¹ s⁻¹ | 4.57 min
B3 | 0.031 s⁻¹ | 2.22e+06 M⁻¹ s⁻¹ | 0.367 min

Each binder was assayed against T1, human ANG2-RBD-Fc-region fusion (assay: SPR, human ANG2; bivalent CrossMab, avidity).

Binder | koff | kon | t1/2 (S)
B4 | 0.00011 s⁻¹ | 2.61e+07 M⁻¹ s⁻¹ | 105 min
B5 | 0.00012 s⁻¹ | 1.83e+07 M⁻¹ s⁻¹ | 96.2 min
B6 | 0.000167 s⁻¹ | 2.06e+07 M⁻¹ s⁻¹ | 69.3 min

Biological target: T1, human ANG2-RBD-Fc-region fusion
Test: SPR, human ANG2-RBD-Fc captured, 1:1 model
Remark: another data set of the same source
Experimental: (§1) HBS-N (10 mM HEPES, 150 mM NaCl pH 7.4, GE Healthcare) was used as running buffer during the immobilization procedure. For the following kinetic characterization, sample and running buffer was HBS-P (10 mM HEPES, 150 mM NaCl pH 7.4, 0.05% Surfactant P20; GE Healthcare). The flow cell was set to 25° C.—and the sample block was set to 12° C.—and primed with running buffer twice prior to kinetic characterization.
(§2) Association was measured by injection of the Cross-Fabs in various concentrations in solution for 90 sec. at a flow rate of 90 μl/min starting with 300 nM in serial 1:3 dilutions. The dissociation phase was monitored for up to 600 sec. and triggered by switching from the sample solution to running buffer. All surfaces were regenerated by 60 sec. washing with a 3 M MgCl₂ solution at a flow rate of 5 μl/min. Bulk refractive index differences were corrected by subtracting the response obtained from an anti-human IgG antibody (Fc) surface. Blank injections were also subtracted (=double referencing). For calculation of KD and other kinetic parameters the Langmuir 1:1 model was used.

Binder | koff | kon | t½
B1 | 0.00317 s⁻¹ | 3.85e+06 M⁻¹ s⁻¹ | 3.65 min
B2 | 0.00253 s⁻¹ | 2.16e+06 M⁻¹ s⁻¹ | 4.57 min
B3 | 0.031 s⁻¹ | 2.22e+06 M⁻¹ s⁻¹ | 0.367 min

The binders below were run against T3, cynomolgus ANG2-RBD-Fc-region fusion (cynomolgus) (assay: SPR, cynomolgus ANG2-RBD-Fc captured, 1:1 model).
T3 construct: domain: RBD
Experimental: as §1, §2

Binder | Kd | koff | kon | t½
B1 | 2 nM | 0.0036 s⁻¹ | 2.14e+06 M⁻¹ s⁻¹ | 3.22 min
B2 | 2 nM | 0.00308 s⁻¹ | 2.02e+06 M⁻¹ s⁻¹ | 3.75 min
B3 | 24 nM | 0.0325 s⁻¹ | 1.34e+06 M⁻¹ s⁻¹ | 0.35 min

The binders below were run against T2, ANG2 (R&D Systems, Cat#623-CF) (assay: cell-based or functional assay).

Binder | relative biological activity [%]
B1 | 838%
B2 | 706%
B3 | 128%

Biological target: T1, human ANG2-RBD-Fc-region fusion
Test: SPR, human ANG2; bivalent CrossMab, avidity
Remark: another data set of the same source

Binder | koff | kon
B4 | 0.00011 s⁻¹ | 2.61e+07 M⁻¹ s⁻¹
B5 | 0.00012 s⁻¹ | 1.83e+07 M⁻¹ s⁻¹
B6 | 0.000167 s⁻¹ | 2.06e+07 M⁻¹ s⁻¹
